The target in the assay is RanQ69L(aa1-180)–GTP (UniProt P62826 1-180, Q69L). Description: pull-down.

B1: His–Xpo 4 (exportin 4, Mus musculus) (natural protein)
chain: not shown
B1: the binding result is “binds”.

The values are drawn from article PMC8131929 (The Journal of Biological Chemistry, 2021).
